Drawing on publication PMC6277173, this text covers Kd for seven molecules.

Test [1] addresses BM07/vL02 (su3H6 with T94hR, Q49lS). Kind of test: BLI; protein A bio-assay (Octet QKe): Ab2/3H6 variants captured from concentrated culture supernatants on protein A biosensors, blocked with an unspecific scFv-Fc antibody, association and dissociation of 2F5 IgG measured; kinetics buffer; KD averaged. (In BLI a coated tip is dipped into the sample, and binding shifts an interference pattern.)

For test [2], the target named is BM07/vL03 (su3H6 with T94hR, F46lL, Q49lS). Described as above.
The next test concerns the target BM07 (su3H6 with T94hR). The test is described as above.
Test [3] deals with BM09 (su3H6 with T94hR, Y27hA). Described as above.
For test [4], the target named is BM07/vL01 (su3H6 with T94hR, F46lL). Described as above.
Test [5] concerns the target human anti HIV-1 monoclonal antibody 2F5 IgG (human). Kind of test: BLI; streptavidin bio-assay (Octet QKe): biotinylated 2F5 IgG loaded on streptavidin biosensors, association and dissociation of purified Ab2/3H6 variants; kinetics buffer; KD averaged over different Ab2/3H6 concentrations.

B1: human anti HIV-1 monoclonal antibody 2F5 IgG (antibody, V domains shown)
VH: RITLKESGPPLVKPTQTLTLTCSFSGFSLSDFGVGVGWIRQPPGKALEWLAIIYSDDDKRYSPSLNTRLTITKDTSKNQVVLVMTRVSPVDTATYFCAHRRGPTTLFGVPIARGPVNAMDVWGQGITVTISS
VL: ALQLTQSPSSLSASVGDRITITCRASQGVTSALAWYRQKPGSPPQLLIYDASSLESGVPSRFSGSGSGTEFTLTISTLRPEDFATYYCQQLHFYPHTFGGGTRVDVR
As to B1, the Kd amounted to 95 nM in test [1]; 21 nM in test [2]; 170 nM with BM07 (su3H6 with T94hR); 39 µM in test [3]; 22 nM in test [4].

B2: BM07/vL03 (su3H6 with T94hR, F46lL, Q49lS) (antibody, V domains shown)
VH: EVQLVQSGAEVKKPGATVKISCKVSGYTFTDYFMHWVQQAPGKGLEWMGYINCYTGATNYSQKFKGRVTITADTSTDTAYMELSSLRSEDTAVYYCARTSIGYGSSPPFPYWGQGTLVTVS
VL: ETTLTQSPAFMSATPGDKVNISCITSTDIDDDMNWYQQKPGEAAILIISDGNTLRPGIPPRFSGSGYGTDFTLTINNIESEDAAYYFCLQSDNLPYTFGQGTKLEIK
B2 yielded a Kd in test [5] of 29 nM.

B3: BM07/vL02 (su3H6 with T94hR, Q49lS) (antibody, V domains shown)
VH: EVQLVQSGAEVKKPGATVKISCKVSGYTFTDYFMHWVQQAPGKGLEWMGYINCYTGATNYSQKFKGRVTITADTSTDTAYMELSSLRSEDTAVYYCARTSIGYGSSPPFPYWGQGTLVTVS
VL: ETTLTQSPAFMSATPGDKVNISCITSTDIDDDMNWYQQKPGEAAIFIISDGNTLRPGIPPRFSGSGYGTDFTLTINNIESEDAAYYFCLQSDNLPYTFGQGTKLEIK
As for B3, the dissociation constant Kd in test [5] was determined as 59 nM.

B4: BM07/vL01 (su3H6 with T94hR, F46lL) (antibody, V domains shown)
VH: EVQLVQSGAEVKKPGATVKISCKVSGYTFTDYFMHWVQQAPGKGLEWMGYINCYTGATNYSQKFKGRVTITADTSTDTAYMELSSLRSEDTAVYYCARTSIGYGSSPPFPYWGQGTLVTVS
VL: ETTLTQSPAFMSATPGDKVNISCITSTDIDDDMNWYQQKPGEAAILIIQDGNTLRPGIPPRFSGSGYGTDFTLTINNIESEDAAYYFCLQSDNLPYTFGQGTKLEIK
For the molecule B4, the Kd in test [5] was found to be 28 nM. Compared with the last molecule, the Kd is about 2.1-fold lower.

B5: BM07 (su3H6 with T94hR) (antibody, V domains shown)
VH: EVQLVQSGAEVKKPGATVKISCKVSGYTFTDYFMHWVQQAPGKGLEWMGYINCYTGATNYSQKFKGRVTITADTSTDTAYMELSSLRSEDTAVYYCARTSIGYGSSPPFPYWGQGTLVTVS
VL: ETTLTQSPAFMSATPGDKVNISCITSTDIDDDMNWYQQKPGEAAIFIIQDGNTLRPGIPPRFSGSGYGTDFTLTINNIESEDAAYYFCLQSDNLPYTFGQGTKLEIK
As to B5, in test [5], the Kd amounted to 330 nM.

B6: BM09 (su3H6 with T94hR, Y27hA) (antibody, V domains shown)
VH: EVQLVQSGAEVKKPGATVKISCKVSGATFTDYFMHWVQQAPGKGLEWMGYINCYTGATNYSQKFKGRVTITADTSTDTAYMELSSLRSEDTAVYYCARTSIGYGSSPPFPYWGQGTLVTVS
VL: ETTLTQSPAFMSATPGDKVNISCITSTDIDDDMNWYQQKPGEAAIFIIQDGNTLRPGIPPRFSGSGYGTDFTLTINNIESEDAAYYFCLQSDNLPYTFGQGTKLEIK
B6 came in with a Kd in test [5] of 8300 nM.

B7: mouse antibody Ab2/3H6 (wt3H6) (antibody, V domains shown)
VH: GVQLQQSGPELVKTGASVKISCKASGYSFTDYFMHWVKQSHGKSLDWIGYINCYTGATNYSQKFKGKATFTVDTSSNTAYMQFNSLTSEDSAVYYCARTSIGYGSSPPFPYWGQGTLVTVS
VL: ETTVTQSPASLSMSIGEKVTIRCITSTDIDDDMNWYQQKPGEPPRLLISDGNTLRPGVPSRFSSSGYGTDFVFTIENMLSEDVADYYCLQSDNLPYTFGGGTNLEIK
The molecule B7 displayed a Kd in test [5] of 35 nM.

As usually defined, the Kd is the constant that tells how readily two partners part at equilibrium. A lower Kd goes with a tighter complex.
